Measurements taken from article PMC10617564, “Efficient clathrin-mediated entry of enteric adenoviruses in human duodenal cells” (Journal of Virology, 2023).

Molecular target: CAR (CXADR Fc chimera full-length extracellular D1D2 domain) (UniProt P78310)
Assay: SPR; Biacore T-200; CAR-Fc amine-coupled to a CM5 chip (~1,500 response units); analytes in twofold dilutions 2000 to 7.81125 nM, injected 120 s at 30 uL/min; 25°C; 10 mM phosphate buffer pH 7.4, 140 mM NaCl, 0.27 mM KCl, 0.05% Tween20; regeneration with 10 mM glycine pH 1.5; three independent experiments

CAR (CXADR Fc chimera full-length extracellular D1D2 domain), sequence (P78310 20-237, change not shown): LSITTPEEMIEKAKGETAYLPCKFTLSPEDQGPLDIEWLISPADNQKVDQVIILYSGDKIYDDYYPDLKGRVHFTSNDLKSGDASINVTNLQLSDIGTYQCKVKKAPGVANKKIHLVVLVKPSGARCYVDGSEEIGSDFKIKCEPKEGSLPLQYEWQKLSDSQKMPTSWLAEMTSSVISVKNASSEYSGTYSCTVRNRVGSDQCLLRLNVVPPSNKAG
HAdV-F40 long fiber knob (domain or fragment), sequence (P18047 348-547 limits assumed): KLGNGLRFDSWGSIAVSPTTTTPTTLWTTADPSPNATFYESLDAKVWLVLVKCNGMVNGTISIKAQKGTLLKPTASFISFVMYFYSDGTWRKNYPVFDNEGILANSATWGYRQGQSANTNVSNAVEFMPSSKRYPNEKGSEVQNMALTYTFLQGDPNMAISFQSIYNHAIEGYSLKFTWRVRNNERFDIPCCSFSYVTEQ
HAdV-F41 long fiber knob (domain or fragment), sequence (P14267 363-562 limits assumed): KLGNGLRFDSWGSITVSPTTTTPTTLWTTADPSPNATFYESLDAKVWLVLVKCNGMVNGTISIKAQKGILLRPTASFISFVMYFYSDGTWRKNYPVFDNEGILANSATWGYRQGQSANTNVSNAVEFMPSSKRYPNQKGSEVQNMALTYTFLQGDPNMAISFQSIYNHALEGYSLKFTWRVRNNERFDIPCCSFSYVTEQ

Row | Substance | Kd [µM]
1 | HAdV-F40 long fiber knob (domain or fragment) | 0.0255
2 | HAdV-F41 long fiber knob (domain or fragment) | 0.00634
